Blank lines part the entries; values can stand above or below the binder they belong to.
Molecular target: T1, FcγRIIIa (human, UniProt P08637 17-208)
T1 construct: extracellular domain; also called 3a; FcγRIIIa extracellular domain
Experiment: SPR (Biacore);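 further: antibody variants captured on an SPR sensor chip, with FcγRIIIa passed over as analyte in HBS-EP+ buffer at 25 °C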
Experimental: The antibody of interest was analyzed for its interaction with FcγR using a BiaCore™ T100, BiaCore™ A100, or BiaCore™ 4000 surface plasmon resonance system (GE Healthcare Japan Corp.). The running buffer used was HBS-EP+ (GE Healthcare Japan Corp.). The assay temperature was set to 25° C. The sensor chips used were: a chip prepared by immobilizing antigenic peptides onto Series S Sensor Chip CM5 (GE Healthcare Japan Corp.) by the amine coupling method; a chip prepared by immobilizing antigenic peptides biotinylated in advance onto Series S Sensor Chip SA (certified) (GE Healthcare Japan Corp.) through their interaction; a chip prepared by immobilizing protein L (ACTIGEN, BioVision, Inc.) onto Series S Sensor Chip CM5 (GE Healthcare Japan Corp.); and a chip prepared by immobilizing protein A/G (Thermo Fisher Scientific K.K.) onto Series S Sensor Chip CM5 (GE Healthcare Japan Corp.). The antibody of interest was captured onto any of these chips and allowed to interact with FcγR diluted with a running buffer. The antibody captured on the chip was washed off through the reaction of 10 mM glycine-HCl (pH 1.5) to regenerate the chip, which was repetitively used.

T1 sequence (P08637 other isoform, or with tags, fused parts or gaps): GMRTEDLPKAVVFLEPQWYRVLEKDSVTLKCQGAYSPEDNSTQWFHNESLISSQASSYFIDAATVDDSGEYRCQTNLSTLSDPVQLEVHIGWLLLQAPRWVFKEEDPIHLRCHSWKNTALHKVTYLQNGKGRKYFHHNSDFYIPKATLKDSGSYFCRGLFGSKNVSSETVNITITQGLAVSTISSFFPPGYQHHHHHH

B1: GpH7-A5/GpH7-B3 variant L234_15Y/GpL16-k0 (antibody, human IgG1, kappa)
heavy 1: not shown
heavy 2: not shown
light: DIVMTQSPLSLPVTPGEPASISCQASESLVHSNRNTYLHWYLQKPGQSPQLLIYKVSNRFSGVPDRFSGSGSGTDFTLKISRVEAEDVGVYYCSQNTHVPPTFGQGTKVEIERTVAAPSVFIFPPSDEQLKSGTASVVCLLNNFYPREAKVQWKVDNALQSGNSQESVTEQDSKDSTYSLSSTLTLSKADYEKHKVYACEVTHQGLSSPVTKSFNRGEC
notes: copies: 1 + 1 + 2
He/Con 3a: 126 % of GpH7-A5/GpH7-B3/GpL16-k0

B2: GpH7-A5/GpH7-B3 variant L234_04F/GpL16-k0 (antibody, human IgG1, kappa)
heavy 1: not shown
heavy 2: not shown
light: B1 light
notes: copies: 1 + 1 + 2
He/Con 3a: 114 % of GpH7-A5/GpH7-B3/GpL16-k0

B4: GpH7-A5/GpH7-B3 variant K334_14T/GpL16-k0 (antibody, human IgG1, kappa)
heavy 1: not shown
heavy 2: not shown
light: B1 light
notes: copies: 1 + 1 + 2
He/Con 3a: 146 % of GpH7-A5/GpH7-B3/GpL16-k0

B8: GpH7-A5/GpH7-B3 variant K326_05P/GpL16-k0 (antibody, human IgG1, kappa)
heavy 1: not shown
heavy 2: not shown
light: B1 light
notes: copies: 1 + 1 + 2
He/Con 3a: 117 % of GpH7-A5/GpH7-B3/GpL16-k0

B12: GpH7-A5/GpH7-B3 variant K334_15Y/GpL16-k0 (antibody, human IgG1, kappa)
heavy 1: not shown
heavy 2: not shown
light: B1 light
notes: copies: 1 + 1 + 2
He/Con 3a: 145 % of GpH7-A5/GpH7-B3/GpL16-k0

B14: GpH7-A5/GpH7-B3 variant K334_03V/GpL16-k0 (antibody, human IgG1, kappa)
heavy 1: not shown
heavy 2: not shown
light: B1 light
notes: copies: 1 + 1 + 2
He/Con 3a: 154 % of GpH7-A5/GpH7-B3/GpL16-k0

B16: GpH7-A5/GpH7-B3 variant L234_09D/GpL16-k0 (antibody, human IgG1, kappa)
heavy 1: not shown
heavy 2: not shown
light: B1 light
notes: copies: 1 + 1 + 2
He/Con 3a: 113 % of GpH7-A5/GpH7-B3/GpL16-k0

B21: GpH7-A5/GpH7-B3 variant K334_13S/GpL16-k0 (antibody, human IgG1, kappa)
heavy 1: not shown
heavy 2: not shown
light: B1 light
notes: copies: 1 + 1 + 2
He/Con 3a: 150 % of GpH7-A5/GpH7-B3/GpL16-k0

B22: GpH7-A5/GpH7-B3 variant I336_16H/GpL16-k0 (antibody, human IgG1, kappa)
heavy 1: not shown
heavy 2: not shown
light: B1 light
notes: copies: 1 + 1 + 2
He/Con 3a: 92.8 % of GpH7-A5/GpH7-B3/GpL16-k0

B25: GpH7-A5/GpH7-B3 variant L234_14T/GpL16-k0 (antibody, human IgG1, kappa)
heavy 1: not shown
heavy 2: not shown
light: B1 light
notes: copies: 1 + 1 + 2
He/Con 3a: 69.8 % of GpH7-A5/GpH7-B3/GpL16-k0

B26: GpH7-A5/GpH7-B3 variant K326_19Q/GpL16-k0 (antibody, human IgG1, kappa)
heavy 1: not shown
heavy 2: not shown
light: B1 light
notes: copies: 1 + 1 + 2
He/Con 3a: 117 % of GpH7-A5/GpH7-B3/GpL16-k0

B27: GpH7-A5/GpH7-B3 variant K334_19Q/GpL16-k0 (antibody, human IgG1, kappa)
heavy 1: not shown
heavy 2: not shown
light: B1 light
notes: copies: 1 + 1 + 2
He/Con 3a: 140 % of GpH7-A5/GpH7-B3/GpL16-k0

B29: GpH7-A5/GpH7-B3 variant L235_01G/GpL16-k0 (antibody, human IgG1, kappa)
heavy 1: not shown
heavy 2: not shown
light: B1 light
notes: copies: 1 + 1 + 2
He/Con 3a: 56.7 % of GpH7-A5/GpH7-B3/GpL16-k0

Next, values leading:

He/Con 3a: 69.7 % of GpH7-A5/GpH7-B3/GpL16-k0
B3: GpH7-A5/GpH7-B3 variant L234_02A/GpL16-k0 (antibody, human IgG1, kappa)
heavy 1: not shown
heavy 2: not shown
light: B1 light
notes: copies: 1 + 1 + 2

He/Con 3a: 127 % of GpH7-A5/GpH7-B3/GpL16-k0
B5: GpH7-A5/GpH7-B3 variant K326_06M/GpL16-k0 (antibody, human IgG1, kappa)
heavy 1: not shown
heavy 2: not shown
light: B1 light
notes: copies: 1 + 1 + 2

He/Con 3a: 93.7 % of GpH7-A5/GpH7-B3/GpL16-k0
B6: GpH7-A5/GpH7-B3 variant K326_20W/GpL16-k0 (antibody, human IgG1, kappa)
heavy 1: not shown
heavy 2: not shown
light: B1 light
notes: copies: 1 + 1 + 2

He/Con 3a: 138 % of GpH7-A5/GpH7-B3/GpL16-k0
B7: GpH7-A5/GpH7-B3 variant K334_16H/GpL16-k0 (antibody, human IgG1, kappa)
heavy 1: not shown
heavy 2: not shown
light: B1 light
notes: copies: 1 + 1 + 2

He/Con 3a: 126 % of GpH7-A5/GpH7-B3/GpL16-k0
B9: GpH7-A5/GpH7-B3 variant K326_08L/GpL16-k0 (antibody, human IgG1, kappa)
heavy 1: not shown
heavy 2: not shown
light: B1 light
notes: copies: 1 + 1 + 2

He/Con 3a: 97.1 % of GpH7-A5/GpH7-B3/GpL16-k0
B10: GpH7-A5/GpH7-B3 variant I336_13S/GpL16-k0 (antibody, human IgG1, kappa)
heavy 1: not shown
heavy 2: not shown
light: B1 light
notes: copies: 1 + 1 + 2

He/Con 3a: 132 % of GpH7-A5/GpH7-B3/GpL16-k0
B11: GpH7-A5/GpH7-B3 variant K334_20W/GpL16-k0 (antibody, human IgG1, kappa)
heavy 1: not shown
heavy 2: not shown
light: B1 light
notes: copies: 1 + 1 + 2

He/Con 3a: 99.5 % of GpH7-A5/GpH7-B3/GpL16-k0
B13: GpH7-A5/GpH7-B3 variant L234_07I/GpL16-k0 (antibody, human IgG1, kappa)
heavy 1: not shown
heavy 2: not shown
light: B1 light
notes: copies: 1 + 1 + 2

He/Con 3a: 88.8 % of GpH7-A5/GpH7-B3/GpL16-k0
B15: GpH7-A5/GpH7-B3 variant I336_12R/GpL16-k0 (antibody, human IgG1, kappa)
heavy 1: not shown
heavy 2: not shown
light: B1 light
notes: copies: 1 + 1 + 2

He/Con 3a: 93.5 % of GpH7-A5/GpH7-B3/GpL16-k0
B17: GpH7-A5/GpH7-B3 variant K334_12R/GpL16-k0 (antibody, human IgG1, kappa)
heavy 1: not shown
heavy 2: not shown
light: B1 light
notes: copies: 1 + 1 + 2

He/Con 3a: 85.1 % of GpH7-A5/GpH7-B3/GpL16-k0
B18: GpH7-A5/GpH7-B3 variant L234_05P/GpL16-k0 (antibody, human IgG1, kappa)
heavy 1: not shown
heavy 2: not shown
light: B1 light
notes: copies: 1 + 1 + 2

He/Con 3a: 138 % of GpH7-A5/GpH7-B3/GpL16-k0
B19: GpH7-A5/GpH7-B3 variant K326_10E/GpL16-k0 (antibody, human IgG1, kappa)
heavy 1: not shown
heavy 2: not shown
light: B1 light
notes: copies: 1 + 1 + 2

He/Con 3a: 118 % of GpH7-A5/GpH7-B3/GpL16-k0
B20: GpH7-A5/GpH7-B3 variant K326_13S/GpL16-k0 (antibody, human IgG1, kappa)
heavy 1: not shown
heavy 2: not shown
light: B1 light
notes: copies: 1 + 1 + 2

He/Con 3a: 101 % of GpH7-A5/GpH7-B3/GpL16-k0
B23: GpH7-A5/GpH7-B3 variant K326_12R/GpL16-k0 (antibody, human IgG1, kappa)
heavy 1: not shown
heavy 2: not shown
light: B1 light
notes: copies: 1 + 1 + 2

He/Con 3a: 82.9 % of GpH7-A5/GpH7-B3/GpL16-k0
B24: GpH7-A5/GpH7-B3 variant L234_06M/GpL16-k0 (antibody, human IgG1, kappa)
heavy 1: not shown
heavy 2: not shown
light: B1 light
notes: copies: 1 + 1 + 2

He/Con 3a: 138 % of GpH7-A5/GpH7-B3/GpL16-k0
B28: GpH7-A5/GpH7-B3 variant K334_05P/GpL16-k0 (antibody, human IgG1, kappa)
heavy 1: not shown
heavy 2: not shown
light: B1 light
notes: copies: 1 + 1 + 2

He/Con 3a: 106 % of GpH7-A5/GpH7-B3/GpL16-k0
B30: GpH7-A5/GpH7-B3 variant K326_16H/GpL16-k0 (antibody, human IgG1, kappa)
heavy 1: not shown
heavy 2: not shown
light: B1 light
notes: copies: 1 + 1 + 2

He/Con 3a: 103 % of GpH7-A5/GpH7-B3/GpL16-k0
B31: GpH7-A5/GpH7-B3 variant I336_14T/GpL16-k0 (antibody, human IgG1, kappa)
heavy 1: not shown
heavy 2: not shown
light: B1 light
notes: copies: 1 + 1 + 2
